Measured values from the DeepSol protein solubility set.

Assay: soluble on expression in E. coli; label from the status in PepcDB or PDB records

| Sequence | soluble on expression in E. coli |
| --- | --- |
| MGSDKIHHHHHHVATGTGLVAIPAAEKVGSEGYVIGIDMTPGMLHQARIKIAAAKLQNIELIEADVEYFNFSESSFDVVFCCEAIVLVPDILAILKKWYRFLKPGGFVAFTCPPETAFMASLQQRICARVLGVSLPHILEPLGTPEKCRNLLNQAGFRDIEIKIEPSGRYRPLRDNRLSEIAININFKGNPLLSKLSQEQLNQLQVEYKAEIEKLATEQGIWEDTTKLFVRARK | not soluble |
| MSLTTMLEVAKRAGVSKATVSRVLSGNGYVSQETKDRVFQAVEESGYRPNLLARNLSAKSTQTLGLVVTNTLYHGIYFSELLFHAARMAEEKGRQLLLADGKHSAEEERQAIQYLLDLRCDAIMIYPRFLSVDEIDDIIDAHSQPIMVLNRRLRKNSSHSVWCDHKQTSFNAVAELINAGHQEIAFLTGSMDSPTSIERLAGYKDALAQHGIALNEKLIANGKWTPASGAEGVEMLLERGAKFSALVASNDDMAIGAMKALHERGVAVPEQVSVIGFDDIAIAPYTVPALSSVKIPVTEMIQEIIGRLIFMLDGGDFSPPKTFSGKLIRRDSLIAPSREGHHHHHH | soluble |
| MGSDKIHHHHHHMAFTNNVMIVRHGLLAKLVKLWKENRLLEEIDRLPIELSPRKSKVRGRCCVHKERAVWKYKTLPLLGFDMQDEEDELTPLSEYAKRALFRSENKKENIMCVVDEACSSCVSVNYEITNLCRGCVARSCYMNCPKDAIRFKKNGQAEIDHETCISCGKCHQSCPYHAIVYIPIPCEEVCPVKAISKDKYGVEHIDESKCIYCGKCVNACPFGAIFEISQVFDILQRLRNKEQMVAIVAPSILAQFSAPKEKVYGAIKSLGFEEVVEVAQGAMETTRHEAEELIEKLKEGQPFMTTSCCPSYVQLAEKHIPDLKKYISSTGSPMYYTARIVKEKYPDAKIVFVGPCVAKRKEVKLDPCVDFTLTFEEVGSVLEGLGIKIEEAQPFSVLFNAVREAHGFAQSGGVINAVKVYLKDENVNAVQVANLTKKNVALLRAYAKTGKAPAQFIEVMACEGGCVTGPCTHADKTAGQKQLIKELTKF | not soluble |
| MGSDKIHHHHHHMEKQYEYVHEKFRHLVIASNQERIEFLDEPRWVGYAVANKIIDNLVSLMNKPKRPRMFNLLVVGDSNNGKTTLIRHFYDLYGIPFVDSQSDGIRPIILAEAPPSANEKELYISLLERFYVPYRPTDSVAKLRYQTIHLFREYKVKMLIIDEFHSLLVGTPRLQRQVMNAIKMLCNELQIPIVGVGTKDAIRVLHTDPQHASRFDVAELPTWKLDKDFQKLLFQFQGILPLKKCSNLQSPELATKIHTISGGNLGNVHRLLTACAIEAITTGTEQITLDIIEHNSWVQPTQGLRKIIG | not soluble |
| MIIKPRIRGFICTTTHPVGCEANVKEQIAYTKAQGPIKNAPKRVLVVGASSGYGLSSRIAAAFGGGASTIGVFFEKEGTEKKPGTAGFYNAAAFEKLAREEGLYAKSLNGDAFSNEAKQKTIDLIKEDLGQVDMVVYSLASPVRKMPETGELIRSALKPIGETYTSTAVDTNKDVIIEASVEPATEEEIKDTVTVMGGEDWELWINALSDAGVLAEGCKTVAYSYIGTELTWPIYWDGALGKAKMDLDRAAKALNEKLGATGGSANVAVLKSVVTQASSAIPVMPLYIAMVFKKMREEGVHEGCMEQIYRMFSQRLYKEDGSAAEVDDMNRLRLDDWELREDIQQHCRELWPQITTENLKELTDYVEYKEEFLKLFGFGVEGVDYEADVNPAVETDFIQI | soluble |
| MRVVVTGATGFVGQQVVKALSDRGDQVVALVRSPGKAAKQFAGVPRVEWLGYTPKAAGDWFSALEGADAVIHLAGEPLANGRWTPQRKQEIYDSRVVGTQQLVQAIAQCQQRPRVLVSTSAIGYYGTSDTETFVETHAAGNDFLAKVCGDWEAAAQGVTELGVRLVILRFGIVLGEQGALAKLLLPFQLYLGGPLGSGQQWFSWIHQQDLVRLILTAVDQVGMQGVYNATAPEPLRMADFCRILAEVMQRPSWLPVPAPVLQLLLGEGADVVLKGQRVLPERTLATGFEFHYPNAKTALTNLLKPRYTEGSRLEHHHHHH | soluble |
| MGSDKIHHHHHHAADVSFPDAVRKVAVINNMPVLKTKDNHEILSSELEGDGKVASEALAENIANVNYFDQVIICDSVFRAQDKVPRVNVILTKEEVRKLSEDLGVDMILSFDRIHIQTKPGVLFYPDFPMPIDAVDGIISPIVRVYIPNRDKPLFVVAKQDTISWEIEPALSDRKIVKEASEYAASIPVEHLLPHWDEVARFYYDGGNIEMRDAGVYLRENNWDEAYSQWKIAYEKRKGQQKMKAAFNIALYYEIKDNVEQAKEWLGKAKKLVKSGSRDEQLIAFYSLELEKRGSKLSQLRIQMKRFDDNF | not soluble |
